Results reported in US20110142842A1 (MEDINNOVA, published 2011).

molecular target: HLA-A*0201 (human, UniProt A*02:01); test: REVEAL MHC binding assay (ProImmune)

Binder	% Pass/fail control
TLQPPWVSV [Peptide ID 26 TLQPPWVSV (CD64)]	197 % of pass/fail control
KIVEWDWKI [Peptide ID 109 KIVEWDWKI (CD48)]	236 % of pass/fail control
LLSGFFFFA [Peptide ID 29 LLSGFFFFA (CD11a)]	210 % of pass/fail control
LLMVFVALL [Peptide ID 121 LLMVFVALL (CD2)]	114 % of pass/fail control
HMRPLAIWL [Peptide ID 106 HMRPLAIWL (CD19)]	56.2 % of pass/fail control
GLYQGLSTV (Modified peptide) [Peptide ID 140 GLYQGLSTV (TCR_TV, modified peptide)]	214 % of pass/fail control
VLQELNVTV [Peptide ID 34 VLQELNVTV (PR3)]	170 % of pass/fail control
SLAQVVMKV [Peptide ID 20 SLAQVVMKV (CD11a)]	155 % of pass/fail control
LLLQVSSRV [Peptide ID 36 LLLQVSSRV (CD64)]	180 % of pass/fail control
SLYGPGSYL [Peptide ID 15 SLYGPGSYL (HA-1)]	198 % of pass/fail control
LLWAGALAV (Modified peptide) [Peptide ID 148 LLWAGALAV (CD33, modified peptide)]	272 % of pass/fail control
FLPDAFVTV (Modified peptide) [Peptide ID 133 FLPDAFVTV (TdT, modified peptide)]	204 % of pass/fail control
VLAEASASQ [Peptide ID 125 VLAEASASQ (FLT3)]	103 % of pass/fail control
RLLFFLLFL [Peptide ID 112 RLLFFLLFL (CD19)]	42.3 % of pass/fail control
ELDEELHYV (Modified peptide) [Peptide ID 137 ELDEELHYV (CD33, modified peptide)]	218 % of pass/fail control
ILYPINILV (Modified peptide) [Peptide ID 149 ILYPINILV (CD11a, modified peptide)]	321 % of pass/fail control
LLMSFFILL [Peptide ID 27 LLMSFFILL (CD53)]	189 % of pass/fail control
DMKDSIWWV [Peptide ID 37 DMKDSIWWV (PU.1)]	131 % of pass/fail control
LLLSGAARV (Modified peptide) [Peptide ID 138 LLLSGAARV (PR3, modified peptide)]	210 % of pass/fail control
KLSLGLPGL [Peptide ID 118 KLSLGLPGL (CD19)]	209 % of pass/fail control
ALAVISFLL [Peptide ID 114 ALAVISFLL (CD7)]	221 % of pass/fail control
CMAGARVQV [Peptide ID 117 CMAGARVQV (CD50)]	158 % of pass/fail control
LLQRPGLQL [Peptide ID 126 LLQRPGLQL (CD64)]	231 % of pass/fail control
FLPDAFVTM [Peptide ID 16 FLPDAFVTM (TdT)]	164 % of pass/fail control
SLSEEVTYV (Modified peptide) [Peptide ID 145 SLSEEVTYV (CLL-1, modified peptide)]	191 % of pass/fail control
FLQPLFLVV (Modified peptide) [Peptide ID 141 FLQPLFLVV (HA-1, modified peptide)]	270 % of pass/fail control

Binder	% Pass/fail control
KLFTSVFGV [Peptide ID 31 KLFTSVFGV (TdT)]	200 % of pass/fail control
SLHSETWEI [Peptide ID 32 SLHSETWEI (CD11a)]	179 % of pass/fail control
ALAGVLAIL [Peptide ID 30 ALAGVLAIL (MPO)]	210 % of pass/fail control
KLGGDLLRA [Peptide ID 129 KLGGDLLRA (CD18)]	229 % of pass/fail control
LLFLTPMEV [Peptide ID 108 LLFLTPMEV (CD19)]	283 % of pass/fail control
HLYGSNASL [Peptide ID 38 HLYGSNASL (CD11a)]	135 % of pass/fail control
LLDPKLCYL [Peptide ID 13 LLDPKLCYL (TCR_TV)]	204 % of pass/fail control
ILLWEIFSL [Peptide ID 3 ILLWEIFSL (FLT3)]	199 % of pass/fail control
LLQPFMFRV (Modified peptide) [Peptide ID 135 LLQPFMFRV (MPO, modified peptide)]	329 % of pass/fail control
YLMDLSYSM [Peptide ID 21 YLMDLSYSM (CD18)]	198 % of pass/fail control
LLAPRFLEV (Modified peptide) [Peptide ID 142 LLAPRFLEV (CD50, modified peptide)]	218 % of pass/fail control
LLLPLLLAL [Peptide ID 28 LLLPLLLAL (CD7)]	253 % of pass/fail control
FLQDTFPQV (Modified peptide) [Peptide ID 132 FLQDTFPQV (CD127, modified peptide)]	216 % of pass/fail control
WMGGVSEPL [Peptide ID 116 WMGGVSEPL (MPO)]	199 % of pass/fail control
ALPAALAVI [Peptide ID 127 ALPAALAVI (CD7)]	264 % of pass/fail control
GLLSPQAQV [Peptide ID 33 GLLSPQAQV (FLT3)]	170 % of pass/fail control
SLQSGILTL [Peptide ID 11 SLQSGILTL (CD127)]	181 % of pass/fail control
VLDIYGFEV [Peptide ID 18 VLDIYGFEV (HA-2)]	161 % of pass/fail control
YLLRVIETL [Peptide ID 14 YLLRVIETL (HA-1)]	179 % of pass/fail control
YLRPGQAAV (Modified peptide) [Peptide ID 144 YLRPGQAAV (CD18, modified peptide)]	227 % of pass/fail control
RLYENRASL [Peptide ID 23 RLYENRASL (HA-1)]	266 % of pass/fail control
ILLLVIWKA [Peptide ID 130 ILLLVIWKA (CD18)]	56.7 % of pass/fail control
PLWGGIMYI [Peptide ID 10 PLWGGIMYI (CD20)]	155 % of pass/fail control
LLFIVVLTL [Peptide ID 119 LLFIVVLTL (FLT3)]	114 % of pass/fail control
SLTLGNVFV [Peptide ID 122 SLTLGNVFV (CD53)]	150 % of pass/fail control
SMLDDLRNV [Peptide ID 24 SMLDDLRNV (CD18)]	251 % of pass/fail control

Binder	% Pass/fail control
YLHVALDLL [Peptide ID 107 YLHVALDLL (MPO)]	278 % of pass/fail control
ALARGLPGV (Modified peptide) [Peptide ID 143 ALARGLPGV (CD7, modified peptide)]	297 % of pass/fail control
LLLREHNRL [Peptide ID 113 LLLREHNRL (MPO)]	195 % of pass/fail control
GLADVAVGV (Modified peptide) [Peptide ID 146 GLADVAVGV (CD11a, modified peptide)]	213 % of pass/fail control
VLWHWLLRT [Peptide ID 105 VLWHWLLRT (CD19)]	337 % of pass/fail control
LLRTGGWKV [Peptide ID 39 LLRTGGWKV (CD19)]	124 % of pass/fail control
SMFHVTLKI [Peptide ID 128 SMFHVTLKI (CLL-1)]	307 % of pass/fail control
VLIGILLLV [Peptide ID 35 VLIGILLLV (CD18)]	117 % of pass/fail control
ELLDVSWLV (Modified peptide) [Peptide ID 150 ELLDVSWLV (TdT, modified peptide)]	239 % of pass/fail control
TVQEGLCVL [Peptide ID 123 TVQEGLCVL (CD33)]	75.2 % of pass/fail control
SLFAAISGM [Peptide ID 124 SLFAAISGM (CD20)]	203 % of pass/fail control
VMNGTDPEL [Peptide ID 120 VMNGTDPEL (CD2)]	200 % of pass/fail control
FLVNTVLWV [Peptide ID 12 FLVNTVLWV (CD64)]	133 % of pass/fail control
FVANAIIHL [Peptide ID 111 FVANAIIHL (CD52)]	276 % of pass/fail control
SLFLGILSV (also called peptide #19; pep 19) [Peptide ID 19 SLFLGILSV (CD20)]	160 % of pass/fail control
SLWRRPFNV [Peptide ID 22 SLWRRPFNV (MPO)]	301 % of pass/fail control
LLAEVTLAV (Modified peptide) [Peptide ID 147 LLAEVTLAV (CD53, modified peptide)]	254 % of pass/fail control
VIVGSIIMV [Peptide ID 110 VIVGSIIMV (CD53)]	113 % of pass/fail control
LLIPAGIYV (Modified peptide) [Peptide ID 136 LLIPAGIYV (CD20, modified peptide)]	275 % of pass/fail control
ALYDKTKRI [Peptide ID 115 ALYDKTKRI (TdT_TV2)]	260 % of pass/fail control
YLMDLSYSV (Modified peptide) [Peptide ID 134 YLMDLSYSV (CD18, modified peptide)]	242 % of pass/fail control
ILFAFVSSV [Peptide ID 25 ILFAFVSSV (FLT3)]	221 % of pass/fail control
YLLDGILFI [Peptide ID 1 YLLDGILFI (TCR_TV)]	201 % of pass/fail control
YLKDGWHMV [Peptide ID 2 YLKDGWHMV (CD5)]	182 % of pass/fail control
